Data: the supplement of paper PMC9112550, “Optimization of the antimicrobial peptide Bac7 by deep mutational scanning” (BMC Biology, 2022)
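Further: peptides expressed intracellularly from a pBAD plasmid library in pooled LB shake-flask culture, induced with 0.3% L-arabinose, DNA abundance read by NGS, three biological replicates, DESeq2 with apeglm shrinkage.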

Each sequence was assayed on Escherichia coli TOP10 (assay: shrunken log2 fold change of peptide-encoding DNA abundance (4.5 h post-induction vs induction); higher = less antimicrobial activity (less host growth inhibition)). Details: time post-induction: 4.5 h; library: site-saturation at positions 5, 18, 19, 20.
In the case of RRIRIRPPRLPRPRPRPRRDPRP, the “shrunken log2 fold change” value is reported as -0.108.
With RRIRCRPPRLPRPRPRPCADPRP the “shrunken log2 fold change” value was -0.0836.
RRIRIRPPRLPRPRPRPCTWPRP was tested, and the “shrunken log2 fold change” value was -0.227.
RRIRTRPPRLPRPRPRPKCMPRP was tested, and the “shrunken log2 fold change” value was -0.134.
In the case of RRIRWRPPRLPRPRPRPCDAPRP, the “shrunken log2 fold change” value is reported as 0.138.
RRIRARPPRLPRPRPRPECMPRP was tested, and the “shrunken log2 fold change” value was 1.41.
RRIRKRPPRLPRPRPRPFITPRP was tested, and the “shrunken log2 fold change” value was -0.352.
In the case of RRIRYRPPRLPRPRPRPKHFPRP, the “shrunken log2 fold change” value is reported as -0.327.
With RRIRWRPPRLPRPRPRPVVPPRP the “shrunken log2 fold change” value was 0.242.
For RRIRKRPPRLPRPRPRPKHTPRP, the “shrunken log2 fold change” value was 0.281.
RRIRPRPPRLPRPRPRPPHAPRP was tested, and the “shrunken log2 fold change” value was 0.589.
In the case of RRIRARPPRLPRPRPRPWWGPRP, the “shrunken log2 fold change” value is reported as 3.62.
In the case of RRIRCRPPRLPRPRPRPEVGPRP, the “shrunken log2 fold change” value is reported as 0.555.
RRIRVRPPRLPRPRPRPKWRPRP was tested, and the “shrunken log2 fold change” value was 0.327.
RRIRKRPPRLPRPRPRPAGPPRP was tested, and the “shrunken log2 fold change” value was 0.368.
With RRIRFRPPRLPRPRPRPYMNPRP the “shrunken log2 fold change” value was -0.818.
With RRIRNRPPRLPRPRPRPAGMPRP the “shrunken log2 fold change” value was -0.126.
RRIRCRPPRLPRPRPRPRTRPRP was tested, and the “shrunken log2 fold change” value was 0.47.
With RRIRVRPPRLPRPRPRPKEIPRP the “shrunken log2 fold change” value was 0.104.
With RRIRTRPPRLPRPRPRPRIKPRP the “shrunken log2 fold change” value was -0.208.
In the case of RRIRLRPPRLPRPRPRPHCSPRP, the “shrunken log2 fold change” value is reported as -0.747.
RRIRERPPRLPRPRPRPPTIPRP was tested, and the “shrunken log2 fold change” value was -0.0452.
RRIRPRPPRLPRPRPRPGNEPRP was tested, and the “shrunken log2 fold change” value was -0.247.
RRIRNRPPRLPRPRPRPQYCPRP was tested, and the “shrunken log2 fold change” value was -0.186.
For RRIRQRPPRLPRPRPRPRMPPRP, the “shrunken log2 fold change” value was 0.216.
RRIRVRPPRLPRPRPRPVEMPRP was tested, and the “shrunken log2 fold change” value was -0.0393.
In the case of RRIRRRPPRLPRPRPRPKEHPRP, the “shrunken log2 fold change” value is reported as 0.345.
In the case of RRIRQRPPRLPRPRPRPENLPRP, the “shrunken log2 fold change” value is reported as -0.0164.
RRIRDRPPRLPRPRPRPMFQPRP was tested, and the “shrunken log2 fold change” value was -0.0111.
RRIRCRPPRLPRPRPRPAWNPRP was tested, and the “shrunken log2 fold change” value was 0.035.
With RRIRKRPPRLPRPRPRPWWSPRP the “shrunken log2 fold change” value was -0.00415.
In the case of RRIRWRPPRLPRPRPRPTGEPRP, the “shrunken log2 fold change” value is reported as 0.306.
RRIRCRPPRLPRPRPRPRYDPRP was tested, and the “shrunken log2 fold change” value was -0.596.
RRIRWRPPRLPRPRPRPVYVPRP was tested, and the “shrunken log2 fold change” value was -0.231.
In the case of RRIRERPPRLPRPRPRPETDPRP, the “shrunken log2 fold change” value is reported as -0.0989.
With RRIRIRPPRLPRPRPRPNACPRP the “shrunken log2 fold change” value was 0.00304.
In the case of RRIRVRPPRLPRPRPRPCADPRP, the “shrunken log2 fold change” value is reported as -0.101.
RRIRMRPPRLPRPRPRPAQHPRP was tested, and the “shrunken log2 fold change” value was 0.0457.
RRIRRRPPRLPRPRPRPFPVPRP was tested, and the “shrunken log2 fold change” value was 0.271.
RRIRERPPRLPRPRPRPHIEPRP was tested, and the “shrunken log2 fold change” value was 0.0737.
RRIRYRPPRLPRPRPRPDFRPRP was tested, and the “shrunken log2 fold change” value was 0.129.
In the case of RRIRLRPPRLPRPRPRPVYRPRP, the “shrunken log2 fold change” value is reported as -0.548.
For RRIRRRPPRLPRPRPRPNGNPRP, the “shrunken log2 fold change” value was 0.0494.
With RRIRPRPPRLPRPRPRPIMLPRP the “shrunken log2 fold change” value was -0.114.
In the case of RRIRQRPPRLPRPRPRPEVSPRP, the “shrunken log2 fold change” value is reported as 0.116.
With RRIRMRPPRLPRPRPRPYPLPRP the “shrunken log2 fold change” value was -0.141.
For RRIRKRPPRLPRPRPRPAQKPRP, the “shrunken log2 fold change” value was -0.0358.
With RRIRQRPPRLPRPRPRPRILPRP the “shrunken log2 fold change” value was -0.275.
With RRIRFRPPRLPRPRPRPSAHPRP the “shrunken log2 fold change” value was -0.352.
In the case of RRIRWRPPRLPRPRPRPQMSPRP, the “shrunken log2 fold change” value is reported as -0.149.
For RRIRERPPRLPRPRPRPRFPPRP, the “shrunken log2 fold change” value was 0.0958.
RRIRCRPPRLPRPRPRPHHRPRP was tested, and the “shrunken log2 fold change” value was -0.266.
With RRIRCRPPRLPRPRPRPSNQPRP the “shrunken log2 fold change” value was -0.414.
In the case of RRIRMRPPRLPRPRPRPKALPRP, the “shrunken log2 fold change” value is reported as 0.025.
In the case of RRIRNRPPRLPRPRPRPYVYPRP, the “shrunken log2 fold change” value is reported as -1.31.
In the case of RRIRDRPPRLPRPRPRPNQMPRP, the “shrunken log2 fold change” value is reported as -0.0987.
RRIRYRPPRLPRPRPRPDRDPRP was tested, and the “shrunken log2 fold change” value was -0.109.
In the case of RRIRARPPRLPRPRPRPEFMPRP, the “shrunken log2 fold change” value is reported as 0.115.
For RRIRNRPPRLPRPRPRPTVVPRP, the “shrunken log2 fold change” value was 0.229.
For RRIRKRPPRLPRPRPRPHVLPRP, the “shrunken log2 fold change” value was 0.0607.
RRIRTRPPRLPRPRPRPGCCPRP was tested, and the “shrunken log2 fold change” value was 0.334.
In the case of RRIRKRPPRLPRPRPRPSECPRP, the “shrunken log2 fold change” value is reported as -0.0384.
With RRIRNRPPRLPRPRPRPQPTPRP the “shrunken log2 fold change” value was 0.0158.
For RRIRIRPPRLPRPRPRPWVTPRP, the “shrunken log2 fold change” value was -0.0476.
RRIRRRPPRLPRPRPRPFFTPRP was tested, and the “shrunken log2 fold change” value was 0.501.
For RRIRARPPRLPRPRPRPFEDPRP, the “shrunken log2 fold change” value was 0.0795.
RRIRKRPPRLPRPRPRPARKPRP was tested, and the “shrunken log2 fold change” value was -0.0215.
In the case of RRIRPRPPRLPRPRPRPDHGPRP, the “shrunken log2 fold change” value is reported as -0.0198.
In the case of RRIRERPPRLPRPRPRPCNIPRP, the “shrunken log2 fold change” value is reported as -0.0405.
In the case of RRIRLRPPRLPRPRPRPITGPRP, the “shrunken log2 fold change” value is reported as -0.0243.
In the case of RRIRGRPPRLPRPRPRPIGVPRP, the “shrunken log2 fold change” value is reported as -0.0542.
For RRIRNRPPRLPRPRPRPALAPRP, the “shrunken log2 fold change” value was 0.1.
With RRIRIRPPRLPRPRPRPTCAPRP the “shrunken log2 fold change” value was -0.166.
In the case of RRIRTRPPRLPRPRPRPRLRPRP, the “shrunken log2 fold change” value is reported as 0.403.
RRIRNRPPRLPRPRPRPDNSPRP was tested, and the “shrunken log2 fold change” value was -0.188.
